PMC12205872, “ESSENTIAL MEIOTIC ENDONUCLEASE 1 is required for chloroplast development and DNA repair in rice”

What was measured:
[1] = target: T1, OsEME1-MBP (MBP fusion, used in MST) (Oryza sativa L. japonica cv. KY131, UniProt Q0J9J6 1-650); assay: MST; 100 nM DNA, 30 C; substrate called Y-Flag in Methods; EMSA/cleavage: 25 mM Tris-HCl pH 7.5, 1 mM MgCl2, 100 mg/mL BSA (so in the source), 1 mM DTT, 5 mM ATP, 2.5 uM Cy5 substrate, 20 uM protein, 30 C, 15% TBE-PAGE after; details: protein: recombinant; tags: MBP; splayed Y: X1 1-25 paired with X4 26-50; 25 nt unpaired 3' arm of X1 and 5' arm of X4
T1 sequence: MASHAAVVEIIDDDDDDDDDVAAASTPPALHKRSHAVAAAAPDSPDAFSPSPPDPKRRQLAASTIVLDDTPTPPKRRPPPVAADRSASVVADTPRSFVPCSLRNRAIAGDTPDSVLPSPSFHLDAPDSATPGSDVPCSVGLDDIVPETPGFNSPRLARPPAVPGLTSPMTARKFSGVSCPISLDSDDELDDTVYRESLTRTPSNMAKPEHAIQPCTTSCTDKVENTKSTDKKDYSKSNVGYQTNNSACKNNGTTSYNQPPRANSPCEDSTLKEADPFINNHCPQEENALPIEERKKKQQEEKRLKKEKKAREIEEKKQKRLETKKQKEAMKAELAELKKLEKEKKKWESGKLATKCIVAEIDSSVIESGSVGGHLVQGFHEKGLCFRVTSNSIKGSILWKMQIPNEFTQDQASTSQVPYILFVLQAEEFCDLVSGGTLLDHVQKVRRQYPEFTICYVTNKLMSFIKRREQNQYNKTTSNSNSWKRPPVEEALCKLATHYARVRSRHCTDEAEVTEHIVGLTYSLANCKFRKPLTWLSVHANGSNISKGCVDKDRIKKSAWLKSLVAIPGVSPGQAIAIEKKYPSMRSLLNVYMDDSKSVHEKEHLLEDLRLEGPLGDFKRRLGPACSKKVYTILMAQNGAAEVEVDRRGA

[2] = target: T2, OsMUS81 (MBP removed by TEVp) (Oryza sativa L. japonica cv. KY131, UniProt Q8GT06 1-660); assay: EMSA; 1 mM Mg2+, 5 mM ATP; not responsible for cleavage; EMSA/cleavage: 25 mM Tris-HCl pH 7.5, 1 mM MgCl2, 100 mg/mL BSA (so in the source), 1 mM DTT, 5 mM ATP, 2.5 uM Cy5 substrate, 20 uM protein, 30 C, 15% TBE-PAGE after; details: protein: recombinant, tags: MBP cleaved by TEVp, label: Cy5 on X1 (3' end)
T2 sequence: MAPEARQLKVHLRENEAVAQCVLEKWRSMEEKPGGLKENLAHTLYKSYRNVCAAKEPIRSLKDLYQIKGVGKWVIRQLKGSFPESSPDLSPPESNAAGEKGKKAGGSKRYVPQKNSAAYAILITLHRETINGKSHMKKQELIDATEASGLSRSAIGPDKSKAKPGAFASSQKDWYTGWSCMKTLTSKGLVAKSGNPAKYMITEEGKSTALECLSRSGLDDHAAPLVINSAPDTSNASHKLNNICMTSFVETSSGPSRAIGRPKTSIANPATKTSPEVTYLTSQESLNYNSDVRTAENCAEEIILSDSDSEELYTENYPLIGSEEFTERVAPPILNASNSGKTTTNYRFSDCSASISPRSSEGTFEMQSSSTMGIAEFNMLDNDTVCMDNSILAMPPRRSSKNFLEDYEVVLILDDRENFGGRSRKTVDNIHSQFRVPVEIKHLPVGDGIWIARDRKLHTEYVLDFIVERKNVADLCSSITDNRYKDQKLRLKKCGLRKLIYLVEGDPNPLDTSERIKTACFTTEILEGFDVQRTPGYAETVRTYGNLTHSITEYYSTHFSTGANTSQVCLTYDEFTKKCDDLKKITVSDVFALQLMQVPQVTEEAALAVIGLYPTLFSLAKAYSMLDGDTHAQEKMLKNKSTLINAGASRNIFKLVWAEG

[3] = target: T3, OsEME1 (MBP removed by TEVp) (Oryza sativa L. japonica cv. KY131, UniProt Q0J9J6 1-650); assay: EMSA; 20 uM protein, 1 mM Mg2+, 5 mM ATP; EMSA/cleavage: 25 mM Tris-HCl pH 7.5, 1 mM MgCl2, 100 mg/mL BSA (so in the source), 1 mM DTT, 5 mM ATP, 2.5 uM Cy5 substrate, 20 uM protein, 30 C, 15% TBE-PAGE after; details: protein: recombinant, tags: MBP cleaved by TEVp, splayed Y: X1 1-25 paired with X2 26-50, 25 nt unpaired arms
T3 sequence: T1 sequence

B1: Y12 (mixed)
DNA 1: GACGCTGCCGAATTCTGGCTTGCTAGGACATCTTTGCCCACGTTGACCCG
DNA 2: GCGATAGTCTCTAGACAGCATGTCCTAGCAAGCCAGAATTCGGCAGCGTC
For B1, which Kd [1] is on record?
The Kd was 16.3 ± 2.16 µM.

B2: X12 (structured_DNA)
DNA 1: B1 DNA 1
DNA 2: CGGGTCAACGTGGGCAAAGATGTCCTAGCAATGTAATCGTCTATGACGTC
DNA 3: GACGTCATAGACGATTACATTGCTAGGACATGCTGTCTAGAGACTATCGC
DNA 4: B1 DNA 2
Does B2 bind ([2]; four-way Holliday junction with 12-bp mobile homologous core)?
Result: binds

B3: pre-X12 (mixed)
DNA 1: B1 DNA 1
DNA 2: B2 DNA 2
DNA 3: B1 DNA 2
Does B3 bind ([2]; three-strand junction: X1 1-25 with X4 26-50, X1 26-50 with X2 1-25, X2 3' and X4 5' arms single-stranded)?
Result: binds

B4: OsGLK2-Y12 (mixed)
DNA 1: GAAGAAGAAGGACGACGAGGAAAGGTCGTCGTCGTTGCCGGAGGAGAAAG
DNA 2: CTCCGTCGTCACCGCGCTCAGGACCCCTTTCCTCGTCGTCCTTCTTCTTC
Does B4 bind ([3]; label: 5' Cy5 on GLK2 X1)?
Result: binds

B5: OsGLK1-Y12 (mixed)
DNA 1: CGTCGATGACATAGACTTCGGGGACTTCTTCCTGAGGCTGGAGGACGGTG
DNA 2: GAAGTCGGTGAAGATCTCGGCCGGGGTCCCCGAAGTCTATGTCATCGACG
Does B5 bind ([3]; label: 5' Cy5 on GLK1 X1)?
Result: binds
